Source: PMC11417369, “DNA sequence and chromatin differentiate sequence-specific transcription factor binding in the human malaria parasite Plasmodium falciparum”

target: T1, PF3D7_0420300 D1 (Plasmodium falciparum, UniProt Q8I1N6 1956-2015); assay: gcPBM; about 25 ug protein; PBS, 1% milk, 0.2 mg/ml BSA, salmon testes DNA, 0.03% Triton X-100; settings: tags: N-terminal GST (pGEX-4T-1), kept; label: surface-attached array probe
T1 sequence: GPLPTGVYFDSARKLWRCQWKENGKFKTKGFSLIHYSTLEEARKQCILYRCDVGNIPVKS

Binder	binding signal
CACACA_negctrl_site1241 (dsDNA) DNA 1: ATTTTTTTTTTTTTTTTTTTTTTGTTTATACAAAAT DNA 2: ATTTTGTATAAACAAAAAAAAAAAAAAAAAAAAAAT	9.04 ln median PBM intensity, better of two orientations
CACACA_negctrl_site810 (dsDNA) DNA 1: AGAAAGGAGGAAATAAAAGGACTTCTTTTTTTATAT DNA 2: ATATAAAAAAAGAAGTCCTTTTATTTCCTCCTTTCT	8.99 ln median PBM intensity, better of two orientations
CACACA_negctrl_site1407 (dsDNA) DNA 1: CACATATACAAAAAGAAATGTTTAGTTGAAAATTAA DNA 2: TTAATTTTCAACTAAACATTTCTTTTTGTATATGTG	9.06 ln median PBM intensity, better of two orientations
CACACA_negctrl_site77 (dsDNA) DNA 1: TCTTTATATCATCTTTCTAAATATATATATATATAA DNA 2: TTATATATATATATATTTAGAAAGATGATATAAAGA	9.07 ln median PBM intensity, better of two orientations
CACACA_negctrl_site460 (dsDNA) DNA 1: ATAATGTATTTATATATATATATATATTTTAATAAA DNA 2: TTTATTAAAATATATATATATATATAAATACATTAT	8.96 ln median PBM intensity, better of two orientations
CACACA_negctrl_site1391 (dsDNA) DNA 1: ATTTTTTTTTTTTTTTTTTTTTTTTTTTGATTTGTG DNA 2: CACAAATCAAAAAAAAAAAAAAAAAAAAAAAAAAAT	8.99 ln median PBM intensity, better of two orientations
CACACA_negctrl_site637 (dsDNA) DNA 1: GTGTAAAGGTATTATTGTATTATTCAAAATAAAAAA DNA 2: TTTTTTATTTTGAATAATACAATAATACCTTTACAC	9.07 ln median PBM intensity, better of two orientations
CACACA_negctrl_site1083 (dsDNA) DNA 1: ATGAAAAAAAAAAAAAAAAAAAAAAAAAAAAAAATA DNA 2: TATTTTTTTTTTTTTTTTTTTTTTTTTTTTTTTCAT	9.02 ln median PBM intensity, better of two orientations
CACACA_negctrl_site173 (dsDNA) DNA 1: TTTTATATATATATATATATATATATATATGTATAT DNA 2: ATATACATATATATATATATATATATATATATAAAA	9.03 ln median PBM intensity, better of two orientations
CACACA_site6208 (dsDNA) DNA 1: ATATAAATATGACACACACACAAAAAAAATAAAGAC DNA 2: GTCTTTATTTTTTTTGTGTGTGTGTCATATTTATAT	10.6 ln median PBM intensity, better of two orientations
CACACA_site117 (dsDNA) DNA 1: ATATATATAAAACACACACACAAAAAAAATAAAGAC DNA 2: GTCTTTATTTTTTTTGTGTGTGTGTTTTATATATAT	10.6 ln median PBM intensity, better of two orientations
CACACA_negctrl_site1015 (dsDNA) DNA 1: TATAAATAAAGACTTTTTTCTAACTTTTTTTTGTAT DNA 2: ATACAAAAAAAAGTTAGAAAAAAGTCTTTATTTATA	9.06 ln median PBM intensity, better of two orientations
CACACA_negctrl_site905 (dsDNA) DNA 1: TATAATAATAATAATAATAATAATAATAATAATAAT DNA 2: ATTATTATTATTATTATTATTATTATTATTATTATA	9.03 ln median PBM intensity, better of two orientations
CACACA_negctrl_site1645 (dsDNA) DNA 1: TATTTTAGAGAAAAAAATAAATTACAAAATGTTAGG DNA 2: CCTAACATTTTGTAATTTATTTTTTTCTCTAAAATA	8.98 ln median PBM intensity, better of two orientations
CACACA_negctrl_site1620 (dsDNA) DNA 1: ATCTAAATAATATATATATATAATATTAATAATATA DNA 2: TATATTATTAATATTATATATATATATTATTTAGAT	8.99 ln median PBM intensity, better of two orientations
CACACA_negctrl_site329 (dsDNA) DNA 1: TTTAATTTATATAATGATATTAAGTTGGTTATTAGG DNA 2: CCTAATAACCAACTTAATATCATTATATAAATTAAA	9 ln median PBM intensity, better of two orientations
CACACA_negctrl_site1408 (dsDNA) DNA 1: ATTTATTTTAATTTTTTTTTTTCTCTTTTGGATCTA DNA 2: TAGATCCAAAAGAGAAAAAAAAAAATTAAAATAAAT	9.07 ln median PBM intensity, better of two orientations
CACACA_negctrl_site237 (dsDNA) DNA 1: ATTCTATTTTTTATAAAACCATGTCATCAACATAGG DNA 2: CCTATGTTGATGACATGGTTTTATAAAAAATAGAAT	8.99 ln median PBM intensity, better of two orientations
CACACA_negctrl_site583 (dsDNA) DNA 1: AAAAAAAAAAAAAAAAAAAAAAAAATATATAATTTA DNA 2: TAAATTATATATTTTTTTTTTTTTTTTTTTTTTTTT	9.05 ln median PBM intensity, better of two orientations
CACACA_negctrl_site1558 (dsDNA) DNA 1: TCTTAAATATATAAATTGAAAAATATAAAAGTAATA DNA 2: TATTACTTTTATATTTTTCAATTTATATATTTAAGA	9.06 ln median PBM intensity, better of two orientations
CACACA_negctrl_site786 (dsDNA) DNA 1: AATAATAAATATATATATATATATATATATATATTT DNA 2: AAATATATATATATATATATATATATATTTATTATT	9 ln median PBM intensity, better of two orientations
CACACA_negctrl_site62 (dsDNA) DNA 1: TATATGTTAATTTTTTTTTTTTTTTTTTTTTTTATA DNA 2: TATAAAAAAAAAAAAAAAAAAAAAAATTAACATATA	8.98 ln median PBM intensity, better of two orientations

Binder	binding signal
CACACA_negctrl_site515 (dsDNA) DNA 1: GACTCATTAAGGATTATTCCTAATGATCAAAAGAAC DNA 2: GTTCTTTTGATCATTAGGAATAATCCTTAATGAGTC	9 ln median PBM intensity, better of two orientations
CACACA_negctrl_site245 (dsDNA) DNA 1: TTTTTATTTTATAATATATTCCTTTTCCTTTCTTTC DNA 2: GAAAGAAAGGAAAAGGAATATATTATAAAATAAAAA	8.97 ln median PBM intensity, better of two orientations
CACACA_negctrl_site825 (dsDNA) DNA 1: TAAGTTCACAAAAAAAAAAAAAAATAAAGAAATAAA DNA 2: TTTATTTCTTTATTTTTTTTTTTTTTTGTGAACTTA	8.98 ln median PBM intensity, better of two orientations
CACACA_negctrl_site1765 (dsDNA) DNA 1: TACTTTATATTATATATATATATATATATATATATA DNA 2: TATATATATATATATATATATATATAATATAAAGTA	9 ln median PBM intensity, better of two orientations
CACACA_negctrl_site674 (dsDNA) DNA 1: TAAAATGATAAATGAATGTGATCATTTTATAAAATA DNA 2: TATTTTATAAAATGATCACATTCATTTATCATTTTA	9.01 ln median PBM intensity, better of two orientations
CACACA_negctrl_site1491 (dsDNA) DNA 1: GTAGCCTTTCTTTATAAAGGCAAACAAACAAAAAAT DNA 2: ATTTTTTGTTTGTTTGCCTTTATAAAGAAAGGCTAC	9.04 ln median PBM intensity, better of two orientations
CACACA_site8094 (dsDNA) DNA 1: AAAAAAATTTGGCATACACACACACCCCCACCCACA DNA 2: TGTGGGTGGGGGTGTGTGTGTATGCCAAATTTTTTT	10.6 ln median PBM intensity, better of two orientations
CACACA_negctrl_site129 (dsDNA) DNA 1: AAGCATTTTTTTTAAAGCCTGTTCATCATCCTTACC DNA 2: GGTAAGGATGATGAACAGGCTTTAAAAAAAATGCTT	9.02 ln median PBM intensity, better of two orientations
CACACA_negctrl_site1084 (dsDNA) DNA 1: TTTTATTGATTATTCATAAATATGCTATTCATCTAA DNA 2: TTAGATGAATAGCATATTTATGAATAATCAATAAAA	9.01 ln median PBM intensity, better of two orientations
CACACA_negctrl_site1423 (dsDNA) DNA 1: TTTTTATAACTATATTATATAACTTTTGTACGAACT DNA 2: AGTTCGTACAAAAGTTATATAATATAGTTATAAAAA	9.01 ln median PBM intensity, better of two orientations
CACACA_negctrl_site1311 (dsDNA) DNA 1: TTACATTTTTGAAATAGATACATACACGTGTATGTA DNA 2: TACATACACGTGTATGTATCTATTTCAAAAATGTAA	9.01 ln median PBM intensity, better of two orientations
CACACA_negctrl_site730 (dsDNA) DNA 1: AGATGATATATTATATATCCTTTTAATAAATGTAAT DNA 2: ATTACATTTATTAAAAGGATATATAATATATCATCT	9.03 ln median PBM intensity, better of two orientations
CACACA_negctrl_site793 (dsDNA) DNA 1: TCCTATAATTTTTTAATCAAAATATTTTATCCTTTG DNA 2: CAAAGGATAAAATATTTTGATTAAAAAATTATAGGA	9.02 ln median PBM intensity, better of two orientations
CACACA_negctrl_site214 (dsDNA) DNA 1: TTTTTATTTTTATACATATAATATATTATGATTAAA DNA 2: TTTAATCATAATATATTATATGTATAAAAATAAAAA	8.98 ln median PBM intensity, better of two orientations
CACACA_negctrl_site753 (dsDNA) DNA 1: ATTTTTTTTTAATGCAATATATTTTGAAAATTTTAT DNA 2: ATAAAATTTTCAAAATATATTGCATTAAAAAAAAAT	8.96 ln median PBM intensity, better of two orientations
CACACA_negctrl_site1155 (dsDNA) DNA 1: TAAATGTCTTCAATGAAGTGGAAATGCTGTTATATA DNA 2: TATATAACAGCATTTCCACTTCATTGAAGACATTTA	8.99 ln median PBM intensity, better of two orientations
CACACA_negctrl_site116 (dsDNA) DNA 1: ATTGGAAAATATGTTATATATATATATATATATATG DNA 2: CATATATATATATATATATATAACATATTTTCCAAT	9.05 ln median PBM intensity, better of two orientations
CACACA_negctrl_site1603 (dsDNA) DNA 1: TGATTTATCTATATTTTATAAGTTATTTATTTTTTT DNA 2: AAAAAAATAAATAACTTATAAAATATAGATAAATCA	9.05 ln median PBM intensity, better of two orientations
CACACA_negctrl_site979 (dsDNA) DNA 1: ATGTAATTCTTTTACTTTTTTTTTTTTTTTTTTTTT DNA 2: AAAAAAAAAAAAAAAAAAAAAGTAAAAGAATTACAT	8.97 ln median PBM intensity, better of two orientations
CACACA_negctrl_site491 (dsDNA) DNA 1: ATTTAATATCACAATATATTTTTTACCCTTATCAGC DNA 2: GCTGATAAGGGTAAAAAATATATTGTGATATTAAAT	9.04 ln median PBM intensity, better of two orientations
CACACA_negctrl_site620 (dsDNA) DNA 1: TTTTTTTACTTAATAGTTCAACATATATCTCAATGT DNA 2: ACATTGAGATATATGTTGAACTATTAAGTAAAAAAA	9.02 ln median PBM intensity, better of two orientations
CACACA_negctrl_site1574 (dsDNA) DNA 1: TTTTTTAAAAGAAAATAAAAAATAAGCATAATATGA DNA 2: TCATATTATGCTTATTTTTTATTTTCTTTTAAAAAA	8.99 ln median PBM intensity, better of two orientations
